Measured values published in patent US20220380801A1, “TRIPARTITE SYSTEMS FOR PROTEIN DIMERIZATION AND METHODS OF USE” (priority 2019, published 2022).
“And” between values parts separate entries of the source, which are not always exact repeats. Equal entries are not always repeated. Where two headings read alike, the source gives them in different places.

Tests used:
[1] = tested on: luciferase reporter gene in HEK293 cells; experiment: Transcriptional regulation assay (split transcription factor), luciferase reporter; format: cell-based, human; conditions: for EC50: read-out: EC50; for fold increase in luciferase expression: direct comparison of DBD-PRSIM constructs with FRB:FKBP12:rapalog positive control; for max fold change: firefly luciferase
Excerpt: The iDimerize regulated transcription system (Takara) was used to test the ability of PRSIM-based CIDs to regulate gene expression. […] The DBD and AD are separately fused to the two protein components of a CID such that, only in the presence of the small molecule inducer, the AD is brought into close proximity to the DBD, recruiting the transcription machinery to a promoter harbouring the DBD recognition sites. The iDimerize regulated transcription system (Takara) provides two vectors, pHet-Act1-2 and pZFHD1-Luciferase. The pHet-Act1-2 vector encodes two fusion proteins that represent a positive control: one is a fusion between FRB (T82L mutant; DmrC) and an activation domain (AD) from human p65 (SEQ ID NO: 42); the other is a fusion protein comprised of a DNA binding domain (ZFHD1) (SEQ ID NO: 43) fused to three tandem copies of FKBP12 (DmrA). These sequences are preceded by a CMV promoter and separated by an internal ribosome entry site (IRES). The ZFHD1 vector encodes luciferase preceded by an inducible promoter consisting of 12 copies of the recognition sequence of the ZFHD1 DBD upstream of a minimal IL-2 promoter. Binding of the DBD to its recognition sequence and recruitment of the transcriptional machinery by the AD initiates transcription of the luciferase reporter gene. The DNA sequence encoding HCV NS3/4A PR (S139A) was purchased as a DNA string from GeneArt and cloned into the pHet-Act1-2 vector as either an N-terminal fusion partner to the activation domain (SEQ ID NO: 44) (replacing FRB) or as a C-terminal fusion partner to the DNA binding domain (SEQ ID NO: 45) (replacing FKBP12) with flexible linkers (TGGGGSGGGGS (SEQ ID NO: 185) and SA, respectively) between the fusion partners. Subsequently, sequences encoding one copy of a panel of 12 PRSIM molecules (Table 2) were purchased as DNA strings from GeneArt and were cloned using Gibson assembly into the HCV NS3/4A PR (S139A)-containing pHetAct1-2 constructs described above, as a fusion partner to either the DBD (SEQ ID NOS: 46-56) or AD (SEQ ID NOS: 57-67), respectively. An equivalent construct was generated to replace the three copies of FKBP12 in pHet-Act1-2 with a single copy of FKBP12. The sequence of the constructs encoding both activation domain and DNA-binding domain fusion proteins was confirmed by Sanger sequencing of the entire coding region.
Sequences encoding the three HCV NS3/4A PR (S139A) mutants (Table 6) were purchased as DNA strings from GeneArt and were cloned using Gibson assembly into the pHetAct1-2 HCV NS3/4A PR (S139A)-PRSIM_23 (3 tandem copy) construct described above as a fusion partner to the AD (SEQ ID NOs: 211-216).
All transcriptional regulation assays were performed in adherent HEK293 cells cultured in 384-well plates. Cells enzymatically dissociated from a tissue culture flask were counted and plated at 7.5×10^3 cells/well in a 384-well plate. The plates were incubated overnight at 37° C. with 5% CO2 to allow the cells to adhere. On day 2, the cells were co-transfected with a pHet-Act1-2 plasmid (containing the FRB:FKBP12 control fusion proteins (Clontech) or the HCV NS3/4A PR (S139A):PRSIM fusion proteins) and a pZFHD1 plasmid (encoding either luciferase (Clontech) or NanoLuc-PEST (as described above)) using Lipofectamine LTX (ThermoFisher). On day 3, wells were treated with different concentrations of either A/C heterodimeriser (for the FRB:FKBP12 control), simeprevir or with vehicle control, and 24 hours later luminescence was quantified with an Envision plate reader immediately following addition of SteadyGlo luciferase substrate (Promega) or Nano-Glo Vivazine luciferase substrate (Promega). Alternatively, reverse transfections were carried out on Day 1, addition of dimeriser on Day 2 and luminescence quantified 24 hours later on Day 3.
Luminescence readings were converted into fold-change by dividing the signal in the presence of simeprevir by that in the absence of simeprevir.

[2] = tested on: split Nanoluciferase (LgBiT/SmBiT) reconstitution in HEK293 cells; experiment: Split NanoLuc reconstitution assay (NanoBiT); format: cell-based, human; conditions: 100 nM simeprevir over no simeprevir; LgBiT fused to the C-terminus of the PRSIM binding module
Procedure: The ability of the PRSIM binding molecules to promote dimerization of two proteins to which they are fused was assessed with the NanoBiT system (Promega) that measures the reconstitution of a split Nanoluciferase (NanoLuc) and the resultant luminescence upon supply of a live cell imaging Nano-Glo NanoLuc substrate (FIG. 8). In the NanoBiT system, one interaction partner is fused via a flexible linker to an 18 kDa fragment of NanoLuc termed LgBiT (for “large bit”) (SEQ ID NO: 16) and the other is fused via an equivalent linker to a 1.3 kDa peptide SmBiT (“small bit”) (SEQ ID NO: 17). LgBit and SmBiT have a low affinity (190 μM) for each other in the absence of interacting partners and will not reconstitute to form an active luciferase enzyme. Once fused to the interacting proteins of a CID and supplied with inducer, they will reconstitute, and luminescence can be measured. The NanoBiT system supplies two sets of control proteins fused to LgBiT and SmBiT: a set of constitutively interacting proteins PRKAR2A:PRKACA; and the FRB:FKBP12 pair whose dimerization can be induced with rapamycin.
To establish the optimal orientation of the HCV NS3/4A PR (S139A) and PRSIM components, constructs whereby HCV NS3/4A PR (S139A) was fused at either the N- or C-terminus to SmBiT (SEQ ID NOs: 18 and 19, respectively) and a parallel set of constructs for each PRSIM binding module fused to either the N- or C-terminus of LgBiT (SEQ ID NOS: 20-30 and 31-41, respectively). The NanoBiT kit (Promega) supplies a set of vectors enabling these constructs to be generated. DNA strings encoding HCV NS3/4A PR (S139A) and the PRSIM molecules were purchased from GeneArt and amplified via PCR with primers with extensions containing restriction sites compatible with the NanoBiT vectors and were cloned via Gibson assembly. All constructs were verified via Sanger sequencing of the entire coding sequence.
All NanoBiT screens were performed in adherent HEK293 cells cultured in 96-well plates. Cells enzymatically dissociated from a tissue culture flask were counted and plated at 2×10^4 cells/well in a white, opaque-bottomed 96-well plate (Costar 3917). The plates were incubated overnight at 37° C. with 5% CO2 to allow the cells to adhere. On day 2, plasmids were co-transfected with Lipofectamine LTX (ThermoFisher) at a final concentration of 100 ng/well (50 ng/plasmid, one encoding a SmBiT fusion, the other a LgBiT fusion). On day 3, wells were treated with 100 nM of the appropriate small molecule inducer (rapamycin (FRB:FKBP12) or simeprevir (HCV NS3/4A PR:PRSIM)) or vehicle control, and luminescence was quantified with an Envision plate reader immediately following addition of Nano-Glo Live Cell Substrate (Promega).

[3] = PRSIM fused to AD, one copy, simeprevir dose-response
[4] = PRSIM fused to DBD, one copy, simeprevir dose-response

Molecule | Max fold change ([1]; PRSIM fused to AD, one copy) | EC50 [1, 3] [nM] | Max fold change ([1]; PRSIM fused to DBD, one copy) | EC50 [1, 4] [nM] | fold-change in luminescence [2] [fold] | fold increase in luciferase expression [1] [fold] | max fold change ([1]; one copy of PRSIM_23 fused to DBD) | max fold change ([1]; three tandem PRSIM_23 fused to DBD) [fold] | max fold change ([1]; two tandem PRSIM_23 fused to DBD) | EC50 ([1]; fusion orientation not stated) [nM]
PRSIM_75: scFv PRSIM binding molecule, SEQ ID NO: 15 (protein, PRSIM_75) scFv: EVQLVQSGAEVKKPGSSVKVSCKASGGSFNSYTLDWVRQAPGQGLEWMGGIIPVFGSPNYGQKFQGRVTITADESTSTAYMELSSLKSDDTAVYYCARGLVYQPLDSWGRGTLVTVSSGGGGSGGGGSGGGGSAQAVLTQPSSASGTPGQRVTISCSGSSSNIGSYTVNWYQQFPGTAPKLLIYSNTQRPSGVPDRFSGSKSGTSASLAISGLQSEDEADYYCAAWDDSLNGWVFGGGTKVTVL | 40.67 | 2.17 | 9.4 | 2.67 | – | – | – | – | – | –
PRSIM_33: Tn3 PRSIM binding molecule, SEQ ID NO: 7 (protein, PRSIM_33) RLDAPSQIEVKDVTDTTALITWYPPGRWYDDIWYFELTYGIKDVPGDRTTIKLARGDDVYSIGNLKPDTEYEVSLISWGPDRGDRAGSNPAKITFKTGL | 2.9 | 82.4 | 33.14 | 12.8 | 9 | – | – | – | – | –
PRSIM_57: scFv specific for HCV NS3/4A PR (S139A):simeprevir complex, SEQ ID NO: 12 (protein, PRSIM_57) scFv: QVQLVQSGAEVKKPGSSVKVSCKASGGTFSSYAISWVRQAPGQGLEWMGGIIPIFGTANYAQKFQGRVTITADESTSTAYMELSSLRSEDTAVYYCARHTNYITVFDYWGQGTLVTVSSGGGGSGGGGSGGGGSAQSVLTQPPSASGTPGQRVTISCSGSSSNIGSNTVNWYQQLPGTAPKLLIYSNNQRPSGVPDRFSGSKSGTSASLAISGLQSEDEADYYCAAWDHHWEQVVFGGGTKLTVL | 10.73 | 3.21 | 146 and 146.6 | 3.54 | 14 | 100 | – | – | – | –
PRSIM_23: Tn3 protein specific for HCV NS3/4A PR (S139A):simeprevir complex, SEQ ID NO: 5 (protein, PRSIM_23) RLDAPSQIEVKDVTDTTALITWVDPRYDDIWWFELTYGIKDVPGDRTTIKLYLNDPYYSIGNLKPDTEYEVSLISYTGDSYSRSGSNPAKITFKTGL | 106 and 106.67 | 2.82 | 88 and 88.8 | 2.47 | 31 | 100 | 364.5 | 4862 | 2436 | 2
PRSIM_67: scFv PRSIM binding molecule, SEQ ID NO: 13 (protein, PRSIM_67) scFv: EVQLVQSGAEVKKPGAAVRISCKTSGYVFTSYYVHWVRQAPGQGLEWMGVINPSGGNTNYAQKFQDRVTMTRDTSTTTVYMELSSLMFDDTAVYYCAKRDYGGPLANWGRGTLVTVSSGGGGSGGGGSGGGGSALSYELTQPPSVSEAPRQRVTISCSGSSSNIGNNAVNWYQQLPGKAPKLLIFYDDLLPSGVSDRFSGSKSGTSASLAISGLQSEDEADYYCAAWDDSLNGLVFGTGTKLTVL | 87.1 | 4.97 | 1 | 2.05 | – | – | – | – | – | –
PRSIM_04: scFv PRSIM binding molecule, SEQ ID NO: 11 (protein, PRSIM_04) scFv: QVQLVQSGAEVKKPGSSVKVSCKASGGTFSSYAISWVRQAPGQGLEWMGGIIPIFGTANYAQKFQGRVTITADESTSTAYMELSSLRSEDTAVYYCARGMAHFYQFDLWGQGTLVTVSSGGGGSGGGGSGGGGSAQSVLTQPPSASGTPGQRVTISCSGSSSNIGSNTVNWYQQLPGTAPKLLIYSNNQRPSGVPDRFSGSKSGTSASLAISGLQSEDEADYYCAAGDHDHEHVVFGGGTKLTVL | 6.9 | 159000 | 1.364 | 6.55 | – | – | – | – | – | –
PRSIM_72: scFv PRSIM binding molecule, SEQ ID NO: 14 (protein, PRSIM_72) scFv: QVQLVQSGAEVKKPGSSVKVSCKASGGTFSSYAISWVRQAPGQGLEWMGGIIPIFGTANYAQKFQGRVTITADESTSTAYMELSSLRSEDTAVYYCARGMAHFYQFDLWGQGTLVTVSSGGGGSGGGGSGGGGSAQSVLTQPPSASGTPGQRVTISCSGSSSNIGSNTVNWYQQLPGTAPKLLIYSNNQRPSGVPDRFSGSKSGTSASLAISGLQSEDEADYYCAAGDHDHEHVVFGGGTKLTVL | 2.2 | 4.84 | 1.4 | 33 | – | – | – | – | – | –
